Results as given in publication PMC2724274 (Nucleic Acids Research, 2009).

Biological target: the molecule itself
Assay: crystal structure

B1: CrgA (contact-regulated gene A), full-length, from Neisseria meningitidis (natural protein, UniProt Q9JXW7 1-299, looked up)
chain: MKTNSEELTVFVQVVESGSFSRAAEQLAMANSAVSRIVKRLEEKLGVNLLNRTTRQLSLTEEGAQYFRRAQRILQEMAAAETEMLAVHEIPQGVLSVDSAMPMVLHLLAPLAAKFNERYPHIRLSLVSSEGYINLIERKVDIALRAGELDDSGLRARHLFDSRFRVIASPEYLAKHGTPQSTEELAGHQCLGFTEPGSLNTWAVLDAQGNPYKISPHFTASSGEILRSLCLSGCGIVCLSDFLVDNDIAEGKLIPLLAEQTSDKTHPFNAVYYSDKAVNLRLRVFLDFLVEELGNNLCG
stoichiometry N: 8
